Results: a protein production outcome set (Wang et al. 2014)

Experiment: label from the status in PepcDB records

## MTQLIKSLPGWLKLMLIFPIFFLNGVLLSLIINRFRELFDYIIIATLVTFLLKLTINFLVSKGIGKRLAIFAVITISFALIALGGITLIPLMGNQLGNLSQDIPRWLSGSQEHLANLKNSTLFLTLDNAGVNVDDLFQKAYLTLSKELDRIGQISLKVLTETIGGVVDTLVILVLTIFLLVGGDTFWQGILSWLPSPWEKKIPQYAGEIFRDYFISRLILAAGSSMARLVVFMALGIPYSILFAFSLGLASLIPFAGAVVTLIGTLVLLLKGWVVAVKFFVSAIVIDQITDNGVAPKLMGDKIGLNPVWILISIFIGAEIAGLLGVLLAVPIASVIKKVIDDMRAGKTENEEIDTEEQVEVLPESLA
  protein production: failed

## MTQNNILLISGAILPVIITVIIGYISGKRKDFNWQQAGDINKIVMLYALPLSIFSNMVMTPRHIVMTMGPVAVAIILALILSFVIPLLVARYLFRRDLALSTLQALAIGSPAVPFIGTSVLAFLFGTVSASLITVSSITQNVFQLPLVMILMSVATGDKSQHISFGARVVNAIKQPVVWSPVIALIIVLADIHIPQTISMSLGLLGKASGGLALFAAGIVLYTRSIVITTATIITVIARNILVPGACYLILLKMGFSMEQIKEVVLTMAIPVGSIAIIIAMQYKTGEQEMASTMALSIIASIITMGGFIFLTF
  protein production: failed

## MTQQLNHAKVNQHPGQATLPETAEGQVRTYEVKTYGCQMNVHDSERLSGLLEEAGYVAAPEDTTPDLVVFNTCAVRENADMRLYGTLGNLRSVKEKNPGMQIAVGGCLAQKDKDTVVKKAPWVDVVFGTHNIGSLPTLLQRAEHNAQAEVEIVDSLEQFPSVLSAKRESAYAGWVSVSVGCNNTCTFCIVPSLRGKEQDRRPGDILAEVQALVDQGVTEVTLLGQNVNAYGVNFVDPELERDRSAFSKLLRACGEIEGLERVRFTSPHPAEFTSDVIDAMAETPNICPQLHMPLQSGSDKVLKEMRRSYRSKKFLSILDEVRAKIPHASITTDIIVGFPGETEEDFQATLDVVKKARFTSAYTFQYSPRPGTPAAEYENQLPKEVVQERYERLMVVQEQVCEEENQKLIGTTVELLVQAGGGRKNDATKRMSGRARDGRLVHFAPEGDIDGEIRPGDFVTVTVTEAKPFFLIADSGVQTHRRTKAGDNSAVGQVPTTAPIGVGLGLPQIGAPKVAPATESACCSIN
  protein production: failed

## MTQRSLADIQFQTTLEGVTPAQLGGFFEGWPNPPTPETLWRILDRAAVFVLARTPDGQVIGFVNALSDGILAASIPLLEVQAGWRSLGLGSELMRRVLTELGDLYMVDLSCDDDVVPFYERLGLKRANAMFLRRYDNQAGIPAE
  protein production: not failed

## MTQRTAFTLTVSPKIPARLSRLEELSNNLWYSWDRATRALFSRLDQQLWEAVGHSPKAFLRRVDESLLLQAAEDLTFLSHYNSVLSAYDSYHSEPSRYQAINGIEARDQVAYFCFEFGFHESLPVYSGGLGILAGDHCKAASDLCLPFVAVGLLYRQGYFFQTIDGQGNQQPVFCDSDFEDLPVKPALHDDGSEVRISVRFPGRVVTVKVWRAQIGHVGLYLLDTDLPDNSEYDRLITHQLYGGNKTMRIEQEIILGVGGVAALRAMGIKPTIWHSNEGHAAFMMLTRALELVRQGLDFASATEAVAVNTIFTTHTAVPAGHDHFPEDMMHRYFEDFYHELKISREEFMALGHTPGNHDFNMTALAIRMSRMHNGVSRIHRDVSANICHDMWPQIEPEENPIDYVTNGVHVPTFLAQEWTDLFDRRLGSQWRSKQHAPEFWSRIHDIPDHIFWSVRQSLKSQMFYGIRARLTEQNLRNHGSEAHLERLLRFVDPINPNILTLGFARRFATYKRATLLFQDLDWLRKLLLDAARPILLIFAGKAHPADLPGQALIRHIHQVADMPEFRGRILLVEGYDLRLARRLVSGVDVWLNNPIYPLEASGTSGMKAGINGTLNLSILDGWWGEGYDGKNGWGIKPVSENMEDSLRDAEESRAFYEILQDQVIPLYYDHSKFGYSADWVRMAKNSMVSLLPRYGTGRMVGEYVQKFYAPASRQGTGYSQDNFAIARSIAAWKARINAAWDGVSVRRLDTPGKQLEFGSTMHFKLAVKLNGLQPEDVVVELLLSRQYNKTRLSQFKHFRLECTGPLGSHEHQFELNHVPELCGRQQYYLRIYPYHPLLTHPLEMGKMVWLLEHHHHHH
  protein production: failed

## MTQSPYWQRIAAKAQAAQRPFFSLAPMEAVTGSVFRRVVMRAAAPDVFYTEFTNALSITHPKAKFTTRGRLYVDEAESPRPIVQLWGNSGEDFTKAAHEVKNQGYQAIDLNMGCPDMAVIKNHSGSDLIRHFDRAKEVIEGARQAELPVSVKTRLGFDDVHEYETWIPFLLQQQVPVLTVHVRTKMEMSKVPAHYELIDNLVQMRDTLAPATLLQINGDILDYQAGLKLAKAHPGVDGIMIGRGIFQNPYAFEPIPQPHSTRDMLELLRYQVDLYDQFIGLGLQGHFAPLQRFFKIYVRGMRHAAELRNELMQTKTTDDVRAIIDRLEAKLPAD
  protein production: failed

## MTRAPPRRCTSPMTPTAPSPLVWRDDGLPQSSLYGDVYFSSVDGLAETRAVFLAGCGLPERFAERRDFVVGELGFGSGLNIAALLDLWRREKPPGGRLHIFSIEAHPLSRDEAARILAHWPELGEAAQVLLDHWPGRARGFHRVDLPGFDAVLDLAVMDVVEALEAWDGLADAWFLDGFSPALNPAMWRDEVLAAVGARSAPGARAATFTVAGAVRRGLSAAGFEIAKRPGFGRKRERLEAWRPGVRPVAQRPETLAIIGGGIAGAALARAARAAGLEVTVIDDADAVAASGNPAALVTPALDAGGGPRAALYAQALSRAVTLYEAQPDAVLAREVLQLAAGERDPARFATVADQDLFEPGDMRTLEAEDTRARLETPTPALAMAGARVIAPAEVTAAWAGPVVRRRVAKAERDGEGWRLLDAAGEIIARADRLALAGGAAGADLLAEAPLRPVRGQASWTRGHGAPATAFGGYAIPTREGLLFGATHDRDDTQTNVRSEDHARNLATLAKGLPALAARLAGSTFEGRAAIRATTPDRLPLADLREDGVIVLTGLGSRGFCLAPLLAEHLVARLLDVPSPLPRQLSHLLKLTRFDSPVTRSRL
  protein production: failed

## MTRASLDKQPHEVASMFDDVAERYDLTNDLLSLGQDRVWRREVAKAVDARPAQKILDLAAGTATSSLPFARAGAYVVPCDFSLGMLRVGKKNHPWLPLTAGDATKLPFKDDTFDAVTISFGLRNVQDTDTALSELYRVTKPGGRVVICEFSHPTWAPFRTVYTEYLMRALPPVARAVSSNPDAYVYLAESIRAWPTQPELAERLRKAGWSKVAWRNLTGGVVALHRGFKAV
  protein production: failed

## MTREMARLLISPSNAWPRLRQDYDHHPFAFLVPLLLLPLLPAACLFIGTTQVGWSLPGNDSVQHLSSGSALLLATMCYLGFVAGVVIMGLFVRWVLFRTPSRPSVPGSLTFTTAIAVPLMLAGIVALVPWRILLLLAAAAACAYSVRLLFTGLPLFMRMQERQTLFYAFCILGVGFLTLLTTAFIFIELWGQSLAGSGEYLR
  protein production: failed

## MTRFWTRLIVVLTVILGVNYVAWRWMASLNWEAWWIAVPLVIAETYSLIDVMLFGLTVWNIKFRKPPPPPPADATVDVFITTYNEPLDLVMTTALAAKEIRWPHSTWILDDGDRPEMRELAESNGIGYVTRGADWTPDMPRHAKAGNLNNALMLTSGEYLLILDADQIPEPDILDKTLGYFNDDKVALVQTPQYFINVPADDPLGSQAPLFYGPIQQGKDGWNAAFFCGSNAILRREALMQLGLVGYVKATEKSVRRALAASRTAIRKARRSPEAENPLVEQMLNEVEAATESAQKELEAGASLSEITYRVRRQVDDAVRTLVAADFSALQSDLEEIAAMELAHVGESGVTTVATDAVDRMSGRDWSPLGALESVHAVLDAISVERTDEAQPIMPLATISVTEDMATAMRLHGLGWKSVYHHEILANGLAPEDVKTMLTQRLRWAQGTMQVLLRENPLVQRRLTWGQRLMYFSTMWTYLSGFAAVVYFAAPIIYLTLGILPVNSISSDFFIRFIPFMVVNQLLFLVAGHGIPTWRGQQYSLALFPTWIKACTTAARNVWFGRPLGFAVTPKARQSGGPSWSLIRPQIIVAVLLAVALIVGLIRLLAGMSEPLGTLVNVAWVAFDLVVLSVLVKAVLYKGFVPEVVGPERPEERNADAV
  protein production: failed

## MTRLRGTLSVCIDAFPAWTRPLALAFVVYALSFGMRMLEYPAWQNPEYMLDGEYLLATHDAYHWIAGAEGFEFGAGHPMSELVRLAAAFTGTTPAAVGFWLPPVMASLVAVGVFGWAAALGGVEAGVCAGVLASLAPGFLARTLLGYCDTDLVTLLFPLLMGLGPAFWMARFMFTPLQVARRLLARRTGTSDVVPDAVAVMMTSRGEADDDWHGGALSPRWLALLAGSGLVGSWGAEWHSLFPYLIRYDVVLLFGCICVFGRPGMRRALLVGGLAYALPMLVGAWGLLFALALGWGLHRADARFMAFVRGRALPVAGWCAVAVLLFDPDVFRMFLNSIAGYVKRSGDPSPGAGGDDPLVYPSVAQSIIEVQDLSLSEVLSYFHPWLWVALAGLGGFVPLLLARPAAFFLLPLGVLSFLSVKLGGRMVMFGAPVLALGFALPMVWGVQRVLRHDLRTGWVRLALSAVLLVIVATPFVDLLPAMTQGPIINKRHAEALRHIRTATPEDSMVWIWWDWGYSAHHFAHRRTIADGASHGGPSLYVPAAVFSTANPRFAWQLIRYTAERGGIPGSVFEGMGGAQAQELVHRLGIEKMTFADAPRQYLVVSYDMLRLGFWITNFGTWDFLSREGKGYAISSIPQQLSYSLDTGEVQVQGNTTGVLASTIDVFDEGQLERRDYIVRQGGSGNAIADYAARQRNIESRRNIHFLFNKVTGEKLVLDDRLYNTVMVQLLLCSPDDTRFAPYFKLIYDNVYARVYEVR
  protein production: failed

## MTRNGHERAKPLRPGDPTELGAYRIVGRLGRGGMGTVYLGKDTAERLVAIKLIRPDLSEDPAFRQRFAREVAAARRVARFSTAAVLDAQLEGDPLFIVSEYVAGPNLAEAIQADGPMYGGTLESLAMGVAAALTAIHGAGVIHRDLKPANVLLSSVGPKVIDFGIARALDDDTAVTRSSQLMGTPAYLAPELIAGEPPTPMSDIFSWGCLVAYAGTGRAPFDAPTVPAVLHQIVAGQPNLSGLDPALRELVESALDKFPDNRPTAQQLLSRLVGQEEMSLDAVHETVVRSWTPPATSRPEAVPSGPNPAAVPAQVGAAAAAPPTQPGTTPPGGQPSATPSAGHPGATPPAGQPAAAPPFPEHSPQTPPWAAPTPPGGNGTEQKTRGTRFSPAIAIAGGSAVALLAGAVIGGLVLFRSPEVPEGMQVYADDFTHQDGWAGYDFDPENTFSWSGYYQGGYALSADGDTRTSTVSVAPPAGLPEQVRVSATTQVVSGPDYGTYGLHCFYNDDGDNVTYYSATVRVDGSAAQIRRHGGEQGSTHLEEVTAKPVSGFLTPSRDAEEAPVNTFDFTCELDPEADTVTLNLWLNGEHVLEAVDTNPLPYDGEDAPQAGMLAGRGIGGGDNIVVVFDDFAVYQLDGGQRERS
  protein production: failed

## MTRPEASGPPDATRLGHLLGPHGVQGGIKLYVLGDPAQVLALKRVYVESRGWLSLRRAEGMPPNLVLYLAGVSSREGAEELRGLQVYATDAELPDLEEGTFYYHDLRGLEVYGAGGERLGTVSDVMDAGHQDLLVVDYGGGTSFVPLQAPYVEVPLAGGKPGAVHLTADAPAGLIGPEPGEEDGAAESLEHHHHHH
  protein production: not failed

## MTRPYSLTRYAWLSIFVAIFTMAVKAAAYRVTGSVGLLSDALESIVNLSAAVVALAMLRLSAQPADARHHFGHGKAEYFASGFEGVLILVAAGAILFAAWDRYLHPHELAELDLGLGLSVAAAVVNGLVGWLLVSVGRKAGSIVLEADGKHLLTDVWTSIGVVCGVAAAGLTGWHDFDPGVAALVGLNIVWTGAGLIRRTIAGLLDASLPLEENLKIRGILETFRERGVGFHDLRTRQSGAHRFMSVHLLVPGAWTVQAAHDLAEEIEAELGGALANLTVVTHIEPIEDPASFGHHEPFPETAPEVTNPHPPQTARPLRLKIASVAGAALLLGGGVAGVVVSGVWLDLALAAVLFGFVLILAVQRRGGRQRKAGRQ
  protein production: failed
